Measured values reported in doi:10.1101/2025.09.24.678339.
Values belong to the substance of their own block, whether it stands above or below them.

Assays:
[1] = target: DNMT3A2 D876A, full-length, purified (human); assay: SEC
[2] = target: DNMT3A2 D876A, full-length, purified (human); assay: SEC + other: mass photometry
[3] = target: DNMT3A2 D876A/R882H, full-length, purified (human); assay: SEC
[4] = target: DNMT3A2 L859F/D876A/R882H, full-length, purified (human); assay: SEC
[5] = target: DNMT3A2 L859F/R882H, full-length, purified (human); assay: SEC
[6] = target: DNMT3A2 R882H, full-length, purified (human); assay: SEC
[7] = target: DNMT3A2 wild type, full-length, purified (human); assay: SEC
[8] = target: DNMT3A2 wild type, full-length, purified (human); assay: SEC + other: mass photometry

Substance: DNMT3A2 D876A, full-length, purified (enzyme)
- stoichiometry N [1]: 2
- stoichiometry N [2]: 2

Substance: DNMT3A2 R882H, full-length, purified (enzyme)
- stoichiometry N [6]: 4

Substance: DNMT3A2 wild type, full-length, purified (enzyme)
- stoichiometry N [7]: 4
- stoichiometry N [8]: 4

Now from value to substance:

- stoichiometry N [3]: 2
Substance: DNMT3A2 D876A/R882H, full-length, purified (enzyme)

- stoichiometry N [4]: 2
Substance: DNMT3A2 L859F/D876A/R882H, full-length, purified (enzyme)

- stoichiometry N [5]: 4
Substance: DNMT3A2 L859F/R882H, full-length, purified (enzyme)
